From PMC8002179

Columns and labels:
[1] = target: wild type ACKR3 fused with Renilla luciferase (RLuc) on the C-terminal tail (human) (UniProt P25106)
[2] = target: β-arrestin1 tagged with the eYFP fluorescent protein (UniProt P49407); assay: BRET; settings: CXCL12 (100 nM), HEK293T cells, read at last time point (~56 min), read off a plot
[3] = target: β-arrestin2 tagged with the mVenus fluorescent protein (UniProt P32121); assay: BRET; settings: CXCL12 (100 nM), HEK293T cells, read off a plot

Sequence of UniProt P25106 (P25106 whole entry, the tested form may be a part): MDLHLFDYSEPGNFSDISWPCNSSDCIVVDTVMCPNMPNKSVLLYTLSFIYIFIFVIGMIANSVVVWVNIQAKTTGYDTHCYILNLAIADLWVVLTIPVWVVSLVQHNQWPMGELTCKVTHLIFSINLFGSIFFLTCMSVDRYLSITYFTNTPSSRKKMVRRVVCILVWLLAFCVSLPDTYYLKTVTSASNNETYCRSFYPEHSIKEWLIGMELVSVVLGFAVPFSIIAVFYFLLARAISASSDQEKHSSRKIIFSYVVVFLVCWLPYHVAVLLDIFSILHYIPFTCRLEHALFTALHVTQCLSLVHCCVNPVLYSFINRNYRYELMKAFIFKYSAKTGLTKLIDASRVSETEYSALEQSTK
Sequence of CXCL12 (P48061 22-93): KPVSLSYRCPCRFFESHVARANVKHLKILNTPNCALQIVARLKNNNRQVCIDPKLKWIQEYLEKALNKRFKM

Substance “CXCL12 (from UniProt P48061 22-93) (ligand)” has a pEC50 of CXCL12 for ACKR3-RLuc translocation to Rab5a-mVenus (early endosome sensor, BRET, HEK293T) [1] of 9.1 pEC50, a pEC50 of CXCL12 for ACKR3-RLuc translocation to Rab11-mVenus (recycling endosome sensor, BRET, HEK293T) [1] of 9.1 pEC50 and a pEC50 of CXCL12 for GRK2-mVenus recruitment to ACKR3-RLuc (BRET, HEK293T) [1] of 8.2 pEC50. It also gave a pEC50 of CXCL12 for GRK3-mVenus recruitment to ACKR3-RLuc (BRET, HEK293T) [1] of 8.1 pEC50, a pEC50 of CXCL12 for GRK5-mVenus recruitment to ACKR3-RLuc (BRET, HEK293T) [1] of 8.3 pEC50 and a pEC50 of CXCL12 for loss of ACKR3-RLuc co-localization with K-Ras-mVenus (cell membrane sensor, BRET, HEK293T) [1] of 8.9 pEC50. For the same substance, the pEC50 of CXCL12 for β-arrestin1-eYFP recruitment to ACKR3-RLuc (BRET, HEK293T) [1] was 8.1 pEC50 and the pEC50 of CXCL12 for β-arrestin2-mVenus recruitment to ACKR3-RLuc (BRET, HEK293T) [1] was 8.2 pEC50.
“wild type ACKR3 fused with Renilla luciferase (RLuc) on the C-terminal tail (from UniProt P25106) ST/A 350.355” was tested, and the response ([2]; parent: est. 1.09) was 1.01 fold vehicle and the response ([3]; read at last time point (~56 min), parent: est. 1.17) was 1.14 fold vehicle.
With “wild type ACKR3 fused with Renilla luciferase (RLuc) on the C-terminal tail (from UniProt P25106) full ST/A” the response ([2]; parent: est. 1.11) was 1 fold vehicle and the response ([3]; read at last time point (~33 min), parent: est. 1.13) was 1.02 fold vehicle.
